Laboratory results as given in publication PMC5849717.
Read-outs that look alike come from different tables or passages of the source.

Key:
[1] = target: GRK-phosphorylated β2AR (FLAG-mYFP-β2AR pulled down with anti-pS355/356) (mouse) (UniProt P18762); test: single-molecule pulldown (SiMPull) with two-colour co-localisation; FLAG-mYFP-β2AR and FLAG-mCherry-β2AR co-expressed 1:1 in HEK293, ISO-treated; lysate pulled down with anti-FLAG or phospho-specific antibodies; mCherry and mYFP spots within 1 pixel (~150 nm) counted as co-localised; overlap = co-localised mYFP / total mYFP; reference mCherry-mYFP fusion gives 58.8% overlap
[2] = target: GRK-phosphorylated β2AR (FLAG-mYFP-β2AR pulled down with anti-pS355/356) (mouse) (UniProt P18762); test: single-molecule pulldown (SiMPull) with photobleaching step analysis; lysates (10 mM Tris pH 7.9, 0.1% DDM, 150 mM NaCl, 2 mM EDTA) of cells expressing mYFP-tagged receptor, untreated or ISO 5 min; captured on slides by biotinylated anti-FLAG or by phospho-specific β2AR antibodies with biotinylated secondary IgG; TIRF; bleaching steps of mYFP counted; percent dimer calculated assuming 75% active mYFP
[3] = target: GRK-phosphorylated β2AR (FLAG-mYFP-β2AR pulled down with anti-pS355/356) (mouse) (UniProt P18762); test: as above; remark: listed apart in the source
[4] = target: FLAG-mYFP-β2AR (β2-adrenergic receptor), total receptor pulled down with anti-FLAG (mouse) (UniProt P18762); test: single-molecule pulldown (SiMPull) with two-colour co-localisation; FLAG-mYFP-β2AR and FLAG-mCherry-β2AR co-expressed 1:1 in HEK293, ISO-treated; lysate pulled down with anti-FLAG or phospho-specific antibodies; mCherry and mYFP spots within 1 pixel (~150 nm) counted as co-localised; overlap = co-localised mYFP / total mYFP; reference mCherry-mYFP fusion gives 58.8% overlap
[5] = target: FLAG-mYFP-β2AR (β2-adrenergic receptor), total receptor pulled down with anti-FLAG (mouse) (UniProt P18762); test: single-molecule pulldown (SiMPull) with photobleaching step analysis; lysates (10 mM Tris pH 7.9, 0.1% DDM, 150 mM NaCl, 2 mM EDTA) of cells expressing mYFP-tagged receptor, untreated or ISO 5 min; captured on slides by biotinylated anti-FLAG or by phospho-specific β2AR antibodies with biotinylated secondary IgG; TIRF; bleaching steps of mYFP counted; percent dimer calculated assuming 75% active mYFP
[6] = target: PKA-phosphorylated β2AR (FLAG-mYFP-β2AR pulled down with anti-pS261/262) (mouse) (UniProt P18762); test: single-molecule pulldown (SiMPull) with two-colour co-localisation; FLAG-mYFP-β2AR and FLAG-mCherry-β2AR co-expressed 1:1 in HEK293, ISO-treated; lysate pulled down with anti-FLAG or phospho-specific antibodies; mCherry and mYFP spots within 1 pixel (~150 nm) counted as co-localised; overlap = co-localised mYFP / total mYFP; reference mCherry-mYFP fusion gives 58.8% overlap
[7] = target: PKA-phosphorylated β2AR (FLAG-mYFP-β2AR pulled down with anti-pS261/262) (mouse) (UniProt P18762); test: single-molecule pulldown (SiMPull) with photobleaching step analysis; lysates (10 mM Tris pH 7.9, 0.1% DDM, 150 mM NaCl, 2 mM EDTA) of cells expressing mYFP-tagged receptor, untreated or ISO 5 min; captured on slides by biotinylated anti-FLAG or by phospho-specific β2AR antibodies with biotinylated secondary IgG; TIRF; bleaching steps of mYFP counted; percent dimer calculated assuming 75% active mYFP

PKA-phosphorylated β2AR (FLAG-mYFP-β2AR pulled down with anti-pS261/262), P18762 1-418 (receptor; phosphoserine at 261/262; phosphoserine at 261/262; other documents disagree on this pair), sequence (P18762 whole entry): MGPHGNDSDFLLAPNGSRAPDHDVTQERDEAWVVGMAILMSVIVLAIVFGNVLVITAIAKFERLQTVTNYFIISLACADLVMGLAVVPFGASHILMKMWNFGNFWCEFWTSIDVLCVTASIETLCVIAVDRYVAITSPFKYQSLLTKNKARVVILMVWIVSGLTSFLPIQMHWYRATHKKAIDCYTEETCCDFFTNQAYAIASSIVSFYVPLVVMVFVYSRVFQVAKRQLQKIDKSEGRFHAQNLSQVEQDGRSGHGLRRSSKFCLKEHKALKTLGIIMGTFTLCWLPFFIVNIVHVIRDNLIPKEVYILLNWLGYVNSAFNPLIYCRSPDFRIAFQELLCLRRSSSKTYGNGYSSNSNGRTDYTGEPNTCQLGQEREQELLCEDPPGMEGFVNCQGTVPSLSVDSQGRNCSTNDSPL
FLAG-mYFP-β2AR (β2-adrenergic receptor), total receptor pulled down with anti-FLAG, P18762 1-418 (receptor; other documents disagree on this pair), sequence (P18762 whole entry): as above
GRK-phosphorylated β2AR (FLAG-mYFP-β2AR pulled down with anti-pS355/356), P18762 1-418 (receptor; phosphoserine at 355/356; phosphoserine at 355/356; other documents disagree on this pair), sequence (P18762 whole entry): as above

Question: With “GRK-phosphorylated β2AR (FLAG-mYFP-β2AR pulled down with anti-pS355/356), P18762 1-418 (receptor; phosphoserine at 355/356; phosphoserine at 355/356; other documents disagree on this pair)” as the substance, how does the percent overlap between mYFP and mCherry copies [1] read?
Answer: The percent overlap between mYFP and mCherry copies was less than 3.2%.

Question: And the percent monomers [2]?
Answer: Its percent monomers is 86.5%.

Question: And the percent dimers [3]?
Answer: Its percent dimers is 12%.

Question: And the percent monomers [3]?
Answer: Its percent monomers is 88%.

Question: How did the percent overlap between mYFP and mCherry copies [4] turn out when “FLAG-mYFP-β2AR (β2-adrenergic receptor), total receptor pulled down with anti-FLAG, P18762 1-418 (receptor; other documents disagree on this pair)” was run?
Answer: Its percent overlap between mYFP and mCherry copies is 13.2%.

Question: And the percent dimers [5]?
Answer: Its percent dimers is 42.7%.

Question: What about the stoichiometry N [5] of the same substance?
Answer: Its stoichiometry N is 2.

Question: With “PKA-phosphorylated β2AR (FLAG-mYFP-β2AR pulled down with anti-pS261/262), P18762 1-418 (receptor; phosphoserine at 261/262; phosphoserine at 261/262; other documents disagree on this pair)” as the substance, how does the percent overlap between mYFP and mCherry copies [6] read?
Answer: Its percent overlap between mYFP and mCherry copies is greater than 20.4%.

Question: What about the percent dimers [7] of the same substance?
Answer: Its percent dimers is 68.8%.

Question: What about the stoichiometry N [7] of the same substance?
Answer: The stoichiometry N was 2.
